For assay [1], the system named is HIV-1 LTR promoter transactivation by HIV-1 Tat. In words: Transactivation assay, HIV-1 LTR luciferase reporter with HIV-1 Tat. In kind it is cell-based. Conditions: HEK293 cells co-transfected with pHIV1LTR-Luc, HIV-1 Tat and the human ORF; relative luciferase activity 24 h post-transfection; positive if >=2 or <=0.5 and p<0.05. In a few lines:
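HEK293 cells (10^4) were calcium-phosphate co-transfected with the HIV-1 LTR-luciferase reporter plus HIV-1 Tat, or the HTLV-1 LTR-luciferase reporter plus HTLV-1 Tax, each with a human ORF expression plasmid. A hit required relative activity ≥2 or ≤0.5 with paired t-test p<0.05.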

Assay [2] relates to HTLV-1 LTR promoter transactivation by HTLV-1 Tax. In words: Transactivation assay, HTLV-1 LTR luciferase reporter with HTLV-1 Tax. In kind it is cell-based. Conditions: HEK293 cells co-transfected with pHTLV1LTR-Luc, HTLV-1 Tax and the human ORF; relative luciferase activity 24 h post-transfection; positive if >=2 or <=0.5 and p<0.05. For orientation: Reporter assays use an easily measured gene product as a stand-in for the process of interest.

B1: C10orf3: human host interactor protein, Gene ID 55165, expressed from transfected ORF vector (protein)
chain: MSSRSTKDLIKSKWGSKPSNSKSETTLEKLKGEIAHLKTSVDEITSGKGKLTDKERHRLLEKIRVLEAEKEKNAYQLTEKDKEIQRLRDQLKARYSTTTLLEQLEETTREGERREQVLKALSEEKDVLKQQLSAATSRIAELESKTNTLRLSQTVAPNCFNSSINNIHEMEIQLKDALEKNQQWLVYDQQREVYVKGLLAKIFELEKKTETAAHSLPQQTKKPESEGYLQEEKQKCYNDLLASAKKDLEVERQTITQLSFELSEFRRKYEETQKEVHNLNQLLYSQRRADVQHLEDDRHKTEKIQKLREENDIARGKLEEEKKRSEELLSQVQFLYTSLLKQQEEQTRVALLEQQMQACTLDFENEKLDRQHVQHQLHVILKELRKARNQITQLESLKQLHEFAITEPLVTFQGETENREKVAASPKSPTAALNESLVECPKCNIQYPATEHRDLLVHVEYCSK
Regarding B1, the HIV_LTR transactiv. in assay [1] is 2.79 fold change. In assay [2], the HTLV_LTR transactiv. worked out at 0.41 fold change.

The record behind these values is US20120090043A1, “TARGETS FOR RETROVIRUS ASSOCIATED DISEASES” (priority 2009, published 2012).
